Assay results published in patent publication US20050026839A1 (GENERAL HOSPITAL, published 2005).
Square brackets hold non-standard residues; d marks the D form. Ends that are not written are not given here. hArg = N=C(N)NCCCC[C@H](N)C(=O)O; Nle = CCCC[C@H](N)C(=O)O; Aib = CC(C)(N)C(=O)O

T1: wild-type human PTH/PTHrP receptor (hP1R-WT) (human, UniProt Q03431 27-593)
T1 construct: whole, on cells; HKRK-B28 cells express ~280,000 receptors per cell; also called PTH-1 receptor; PTH-1R
T1 sequence (looked up): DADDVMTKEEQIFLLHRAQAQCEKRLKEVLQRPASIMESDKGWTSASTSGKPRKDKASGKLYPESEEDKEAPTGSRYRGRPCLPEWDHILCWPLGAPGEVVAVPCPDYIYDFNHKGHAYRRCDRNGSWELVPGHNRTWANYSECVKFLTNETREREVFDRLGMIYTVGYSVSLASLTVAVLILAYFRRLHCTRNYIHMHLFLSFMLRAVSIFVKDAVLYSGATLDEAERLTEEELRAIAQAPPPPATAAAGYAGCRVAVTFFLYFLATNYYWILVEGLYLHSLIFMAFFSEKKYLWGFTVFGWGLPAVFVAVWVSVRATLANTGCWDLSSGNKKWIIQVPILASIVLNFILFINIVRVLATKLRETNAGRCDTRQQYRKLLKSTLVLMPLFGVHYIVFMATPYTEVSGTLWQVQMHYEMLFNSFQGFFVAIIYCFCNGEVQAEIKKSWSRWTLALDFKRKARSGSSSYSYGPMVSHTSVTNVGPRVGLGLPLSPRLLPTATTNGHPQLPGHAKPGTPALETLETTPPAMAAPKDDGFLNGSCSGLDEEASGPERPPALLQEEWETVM


Legend:
[1] = molecular target: T1, wild-type human PTH/PTHrP receptor …; assay: competition binding, 125I-[M]PTH(1-21) tracer, HKRK-B28 cells
Procedure: (§1) Cells were then placed on ice, the binding medium was removed, and the monolayer was rinsed three times with 0.5 mL of cold binding buffer. The cells were subsequently lysed with 0.5 mL […] NaOH and counted for radioactivity. For each tracer and in each experiment, the non-specific binding was determined as the radioactivity that bound in the presence of the same unlabeled peptide at a concentration of 1 μM, and was ˜1% of total radioactivity added for each tracer. The maximum specific binding (B₀) was the total radioactivity bound in the absence of competing ligand, corrected for nonspecific binding, and for each tracer, ranged from 8% to 20% of the total radioactivity added. Nonlinear regression was used to calculate binding IC₅₀ values (see below). Scatchard transformations of homologous competition binding data derived from studies with 26 fmol of ¹²⁵I-[Aib^{1,3},M]PTH(1-21) were employed for estimations of apparent equilibrium dissociation constant (kDapps) and total number of ligand binding sites (Bₘₐₓ), assuming a single class of binding sites and equal affinities of the iodinated and non iodinated ligand.
Relative to the apparent binding affinity of [M]PTH(1-14), most of the Aib substitutions reduced affinity, in accordance with the corresponding effects on cAMP-signaling potency (Table 1).

[2] = molecular target: T1, wild-type human PTH/PTHrP receptor …; assay: cell-based or functional assay
[3] = molecular target: T1, wild-type human PTH/PTHrP receptor …; assay: competition binding, 125I-[M]PTH(1-21) tracer, HKRK-B28 cells, 4 h at 4 C
Procedure: as §1, with “Competition Binding. Binding reactions were performed with HKRK-B28 cells or in COS-7 cells in 24-well plates. The cells were rinsed with 0.5 mL of binding buffer, and then treated successively with 100 μL binding buffer, 100 μL of binding buffer containing various amounts of unlabeled competitor ligand, and 100 μL of binding buffer containing ca. 100,000 cpm of ¹²⁵I-[M]PTH(1-21) or ¹²⁵I-[Aib^{1,3},M]PTH(1-21)} (ca. 26 fmol; final volume=300 μL). Incubations were 4 to 6 h at 4° C., at which time near equilibrium conditions were attained. Cells” for “Cells”
Peptides PTH(1-34) ([Nle^{8,21}, Tyr³⁴]PTH(1-34)amide), [M]PTH(1-14) (M = Ala^{3,12}, Gln¹⁰, Har¹¹, Trp¹⁴), and [M]PTH(1-14 analogs, or C-terminally truncated derivatives thereof, containing α-aminoisobutyric acid (Aib) substitutions at the indicated positions were functionally evaluated in HKRK-B28 cells. “M” in [Aib^{1,3}, M]PTH(1-21) = Nle⁸, Gln¹⁰, Har¹¹, Ala¹², Trp¹⁴, Arg¹⁹ and Tyr²¹. The basal cAMP values (not subtracted) were 4.0 ± 0.1 pmole/well (n = 10). Peptides were based on the rat PTH sequence and were carboxy-amidated. Competition binding analyses were performed with ¹²⁵I-[M]PTH(1-21 )amide (Ala^{1,3}) as tracer for 4 h at 4° C. Data are means (±S.E.M.) Of the number of experiments indiated (n).

Binder	fold reduction in affinity relative to [M]PTH(1-14) [1] [fold]	cAMP EC50 [2] [µM]	cAMP EMax(obs.) [2] [pmole/well]	IC50 [3] [µM]
AVAEIQL[Aib]HQ[hArg]AKW-NH2 (N-terminus assumed; SMILES CC[C@H](C)[C@H](NC(=O)[C@H](CCC(=O)O)NC(=O)[C@H](C)NC(=O)[C@@H](NC(=O)[C@H](C)N)C(C)C)C(=O)N[C@@H](CCC(N)=O)C(=O)N[C@@H](CC(C)C)C(=O)NC(C)(C)C(=O)N[C@@H](Cc1c[nH]cn1)C(=O)N[C@@H](CCC(N)=O)C(=O)N[C@@H](CCCCNC(=N)N)C(=O)N[C@@H](C)C(=O)N[C@@H](CCCCN)C(=O)N[C@@H](Cc1c[nH]c2ccccc12)C(N)=O, Aib scan of [M]PTH(1-14); also called 629 Aib-8) [[Aib^8,M]PTH(1-14)]	> 10	1500	34	
AVAEI[Aib]LMHQ[hArg]AKW-NH2 (N-terminus assumed; SMILES CC[C@H](C)[C@H](NC(=O)[C@H](CCC(=O)O)NC(=O)[C@H](C)NC(=O)[C@@H](NC(=O)[C@H](C)N)C(C)C)C(=O)NC(C)(C)C(=O)N[C@@H](CC(C)C)C(=O)N[C@@H](CCSC)C(=O)N[C@@H](Cc1c[nH]cn1)C(=O)N[C@@H](CCC(N)=O)C(=O)N[C@@H](CCCCNC(=N)N)C(=O)N[C@@H](C)C(=O)N[C@@H](CCCCN)C(=O)N[C@@H](Cc1c[nH]c2ccccc12)C(N)=O, Aib scan of [M]PTH(1-14); also called 627 Aib-6) [[Aib^6,M]PTH(1-14)]	~3	230	116	31
AVA[Aib]IQLMHQ[hArg]AKW-NH2 (N-terminus assumed; SMILES CC[C@H](C)[C@H](NC(=O)C(C)(C)NC(=O)[C@H](C)NC(=O)[C@@H](NC(=O)[C@H](C)N)C(C)C)C(=O)N[C@@H](CCC(N)=O)C(=O)N[C@@H](CC(C)C)C(=O)N[C@@H](CCSC)C(=O)N[C@@H](Cc1c[nH]cn1)C(=O)N[C@@H](CCC(N)=O)C(=O)N[C@@H](CCCCNC(=N)N)C(=O)N[C@@H](C)C(=O)N[C@@H](CCCCN)C(=O)N[C@@H](Cc1c[nH]c2ccccc12)C(N)=O, Aib scan of [M]PTH(1-14); also called 625 Aib-4) [[Aib^4,M]PTH(1-14)]	> 10	17	221	148
AVAEIQ[Aib]MHQ[hArg]AKW-NH2 (N-terminus assumed; SMILES CC[C@H](C)[C@H](NC(=O)[C@H](CCC(=O)O)NC(=O)[C@H](C)NC(=O)[C@@H](NC(=O)[C@H](C)N)C(C)C)C(=O)N[C@@H](CCC(N)=O)C(=O)NC(C)(C)C(=O)N[C@@H](CCSC)C(=O)N[C@@H](Cc1c[nH]cn1)C(=O)N[C@@H](CCC(N)=O)C(=O)N[C@@H](CCCCNC(=N)N)C(=O)N[C@@H](C)C(=O)N[C@@H](CCCCN)C(=O)N[C@@H](Cc1c[nH]c2ccccc12)C(N)=O, Aib scan of [M]PTH(1-14); also called 628 Aib-7) [[Aib^7,M]PTH(1-14)]	> 10	2.6	275	490
AVAEIQLM[Aib]Q[hArg]AKW-NH2 (N-terminus assumed; SMILES CC[C@H](C)[C@H](NC(=O)[C@H](CCC(=O)O)NC(=O)[C@H](C)NC(=O)[C@@H](NC(=O)[C@H](C)N)C(C)C)C(=O)N[C@@H](CCC(N)=O)C(=O)N[C@@H](CC(C)C)C(=O)N[C@@H](CCSC)C(=O)NC(C)(C)C(=O)N[C@@H](CCC(N)=O)C(=O)N[C@@H](CCCCNC(=N)N)C(=O)N[C@@H](C)C(=O)N[C@@H](CCCCN)C(=O)N[C@@H](Cc1c[nH]c2ccccc12)C(N)=O, Aib scan of [M]PTH(1-14); also called 630 Aib-9) [[Aib^9,M]PTH(1-14)]	> 10	710	51	
A[Aib]AEIQLMHQ[hArg]AKW-NH2 (N-terminus assumed; SMILES CC[C@H](C)[C@H](NC(=O)[C@H](CCC(=O)O)NC(=O)[C@H](C)NC(=O)C(C)(C)NC(=O)[C@H](C)N)C(=O)N[C@@H](CCC(N)=O)C(=O)N[C@@H](CC(C)C)C(=O)N[C@@H](CCSC)C(=O)N[C@@H](Cc1c[nH]cn1)C(=O)N[C@@H](CCC(N)=O)C(=O)N[C@@H](CCCCNC(=N)N)C(=O)N[C@@H](C)C(=O)N[C@@H](CCCCN)C(=O)N[C@@H](Cc1c[nH]c2ccccc12)C(N)=O, Aib scan of [M]PTH(1-14); also called 623 Aib-2) [[Aib^2,M]PTH(1-14)]		47	168	50
AVAEIQL[Nle]HQ[hArg]AKWLASVRRY-NH2 (N-terminus assumed; SMILES CCCC[C@H](NC(=O)[C@H](CC(C)C)NC(=O)[C@H](CCC(N)=O)NC(=O)[C@@H](NC(=O)[C@H](CCC(=O)O)NC(=O)[C@H](C)NC(=O)[C@@H](NC(=O)[C@H](C)N)C(C)C)[C@@H](C)CC)C(=O)N[C@@H](Cc1c[nH]cn1)C(=O)N[C@@H](CCC(N)=O)C(=O)N[C@@H](CCCCNC(=N)N)C(=O)N[C@@H](C)C(=O)N[C@@H](CCCCN)C(=O)N[C@@H](Cc1c[nH]c2ccccc12)C(=O)N[C@@H](CC(C)C)C(=O)N[C@@H](C)C(=O)N[C@@H](CO)C(=O)N[C@H](C(=O)N[C@@H](CCCNC(=N)N)C(=O)N[C@@H](CCCNC(=N)N)C(=O)N[C@@H](Cc1ccc(O)cc1)C(N)=O)C(C)C, unlabeled peptide; also called [M]PTH(1-21); 608 [M]PTH(1-21)) [[Ala^3,12,Nle^8,Gln^10,Har^11,Trp^14,Arg^19,Tyr^21]PTH(1-21)amide]				0.053
[Aib]V[Aib]EIQLMH-NH2 (N-terminus assumed; SMILES CC[C@H](C)[C@H](NC(=O)[C@H](CCC(=O)O)NC(=O)C(C)(C)NC(=O)[C@@H](NC(=O)C(C)(C)N)C(C)C)C(=O)N[C@@H](CCC(N)=O)C(=O)N[C@@H](CC(C)C)C(=O)N[C@@H](CCSC)C(=O)N[C@@H](Cc1c[nH]cn1)C(N)=O) [[Aib^1,3]PTH(1-9)]		> 10	10	
